Biological target: T1, CD30 (UniProt P28908 19-595, limits assumed)
T1 sequence (looked up): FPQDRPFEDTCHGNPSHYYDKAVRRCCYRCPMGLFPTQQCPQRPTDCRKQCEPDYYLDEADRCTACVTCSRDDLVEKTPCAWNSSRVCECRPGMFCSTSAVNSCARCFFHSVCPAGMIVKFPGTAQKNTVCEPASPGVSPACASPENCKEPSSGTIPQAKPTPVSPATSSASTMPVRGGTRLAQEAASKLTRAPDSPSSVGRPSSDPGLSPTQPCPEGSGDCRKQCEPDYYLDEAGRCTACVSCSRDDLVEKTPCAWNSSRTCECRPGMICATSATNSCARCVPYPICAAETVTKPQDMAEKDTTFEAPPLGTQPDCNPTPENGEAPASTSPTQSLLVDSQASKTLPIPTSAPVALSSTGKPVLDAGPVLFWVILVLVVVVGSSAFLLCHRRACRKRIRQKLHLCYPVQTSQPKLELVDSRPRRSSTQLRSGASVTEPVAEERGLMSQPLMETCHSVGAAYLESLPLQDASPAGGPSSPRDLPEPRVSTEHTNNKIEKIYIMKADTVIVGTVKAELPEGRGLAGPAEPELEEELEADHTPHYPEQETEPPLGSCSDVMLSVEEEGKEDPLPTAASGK
Experiment: cell-based or functional assay

Row | Binder | IC50, cytotoxic activity against the SR cells
1 | Antibody-drug conjugate (6) (antibody, human IgG1, kappa, V domains shown, drug-linker 6-maleimidohexanoyl-GGFG-NH-(CH2)3-C(=O)-exatecan (compound of Process 3 of Example 2) on cysteines of the reduced hinge disulfide bonds; average 3.3 per antibody molecule; positions not given) VH: QIQLQQSGPEVVKPGASVKISCKASGYTFTDYYITWVKQKPGQGLEWIGWIYPGSGNTKYNEKFKGKATLTVDTSSSTAFMQLSSLTSEDTAVYFCANYGNYWFAYWGQGTQVTVSA VL: DIVLTQSPASLAVSLGQRATISCKASQSVDFDGDSYMNWYQQKPGQPPKVLIYAASNLESGIPARFSGSGSGTDFTLNIHPVEEEDAATYYCQQSNQDPWTFGGGTKLEIKR | < 10 pM
2 | Antibody-drug conjugate (65) (antibody, V domains shown, drug-linker 6-maleimidohexanoyl-GGFG-NH-CH2-O-CH2-C(=O)-exatecan (compound of Process 8 of Example 58) on cysteines of the reduced hinge disulfide bonds; average 6.8 per antibody molecule; positions not given) VH: QIQLQQSGPEVVKPGASVKISCKASGYTFTDYYITWVKQKPGQGLEWIGWIYPGSGNTKYNEKFKGKATLTVDTSSSTAFMQLSSLTSEDTAVYFCANYGNYWFAYWGQGTQVTVSA VL: DIVLTQSPASLAVSLGQRATISCKASQSVDFDGDSYMNWYQQKPGQPPKVLIYAASNLESGIPARFSGSGSGTDFTLNIHPVEEEDAATYYCQQSNQDPWTFGGGTKLEIKR | < 10 pM
3 | Antibody-drug conjugate (64) (antibody, V domains shown, drug-linker 6-maleimidohexanoyl-GGFG-NH-CH2-O-CH2-C(=O)-exatecan (compound of Process 8 of Example 58) on cysteines of the reduced hinge disulfide bonds; average 3.7 per antibody molecule; positions not given) VH: QIQLQQSGPEVVKPGASVKISCKASGYTFTDYYITWVKQKPGQGLEWIGWIYPGSGNTKYNEKFKGKATLTVDTSSSTAFMQLSSLTSEDTAVYFCANYGNYWFAYWGQGTQVTVSA VL: DIVLTQSPASLAVSLGQRATISCKASQSVDFDGDSYMNWYQQKPGQPPKVLIYAASNLESGIPARFSGSGSGTDFTLNIHPVEEEDAATYYCQQSNQDPWTFGGGTKLEIKR | < 10 pM
4 | Antibody-drug conjugate (23) (antibody, V domains shown, drug-linker 3-maleimidopropanoyl-NH-(CH2CH2O)2-CH2CH2-C(=O)-GGFG-NH-(CH2)3-C(=O)-exatecan (compound of Process 1 of Example 14) on cysteines of the reduced hinge disulfide bonds; average 7.1 per antibody molecule; positions not given) VH: QIQLQQSGPEVVKPGASVKISCKASGYTFTDYYITWVKQKPGQGLEWIGWIYPGSGNTKYNEKFKGKATLTVDTSSSTAFMQLSSLTSEDTAVYFCANYGNYWFAYWGQGTQVTVSA VL: DIVLTQSPASLAVSLGQRATISCKASQSVDFDGDSYMNWYQQKPGQPPKVLIYAASNLESGIPARFSGSGSGTDFTLNIHPVEEEDAATYYCQQSNQDPWTFGGGTKLEIKR | < 10 pM
5 | Antibody-drug conjugate (38) (antibody, V domains shown, drug-linker from the N-succinimidyl ester of suberoyl-GGFG-NH-(CH2)3-C(=O)-exatecan (compound of Process 1 of Example 37); average 2.7 per antibody molecule; chain and positions not stated) VH: QIQLQQSGPEVVKPGASVKISCKASGYTFTDYYITWVKQKPGQGLEWIGWIYPGSGNTKYNEKFKGKATLTVDTSSSTAFMQLSSLTSEDTAVYFCANYGNYWFAYWGQGTQVTVSA VL: DIVLTQSPASLAVSLGQRATISCKASQSVDFDGDSYMNWYQQKPGQPPKVLIYAASNLESGIPARFSGSGSGTDFTLNIHPVEEEDAATYYCQQSNQDPWTFGGGTKLEIKR | < 10 pM
6 | Antibody-drug conjugate (7) (antibody, V domains shown, drug-linker 6-maleimidohexanoyl-GGFG-NH-(CH2)3-C(=O)-exatecan (compound of Process 3 of Example 2) on cysteines of the reduced hinge disulfide bonds; average 3.8 per antibody molecule; positions not given) VH: QIQLQQSGPEVVKPGASVKISCKASGYTFTDYYITWVKQKPGQGLEWIGWIYPGSGNTKYNEKFKGKATLTVDTSSSTAFMQLSSLTSEDTAVYFCANYGNYWFAYWGQGTQVTVSA VL: DIVLTQSPASLAVSLGQRATISCKASQSVDFDGDSYMNWYQQKPGQPPKVLIYAASNLESGIPARFSGSGSGTDFTLNIHPVEEEDAATYYCQQSNQDPWTFGGGTKLEIKR | < 10 pM
7 | Antibody-drug conjugate (22) (antibody, V domains shown, drug-linker 3-maleimidopropanoyl-NH-(CH2CH2O)2-CH2CH2-C(=O)-GGFG-NH-(CH2)3-C(=O)-exatecan (compound of Process 1 of Example 14) on cysteines of the reduced hinge disulfide bonds; average 2.5 per antibody molecule; positions not given) VH: QIQLQQSGPEVVKPGASVKISCKASGYTFTDYYITWVKQKPGQGLEWIGWIYPGSGNTKYNEKFKGKATLTVDTSSSTAFMQLSSLTSEDTAVYFCANYGNYWFAYWGQGTQVTVSA VL: DIVLTQSPASLAVSLGQRATISCKASQSVDFDGDSYMNWYQQKPGQPPKVLIYAASNLESGIPARFSGSGSGTDFTLNIHPVEEEDAATYYCQQSNQDPWTFGGGTKLEIKR | < 100 pM

Biological target: CD33 (UniProt P20138 18-364, limits assumed)
Sequence (P20138 18-364 limits assumed): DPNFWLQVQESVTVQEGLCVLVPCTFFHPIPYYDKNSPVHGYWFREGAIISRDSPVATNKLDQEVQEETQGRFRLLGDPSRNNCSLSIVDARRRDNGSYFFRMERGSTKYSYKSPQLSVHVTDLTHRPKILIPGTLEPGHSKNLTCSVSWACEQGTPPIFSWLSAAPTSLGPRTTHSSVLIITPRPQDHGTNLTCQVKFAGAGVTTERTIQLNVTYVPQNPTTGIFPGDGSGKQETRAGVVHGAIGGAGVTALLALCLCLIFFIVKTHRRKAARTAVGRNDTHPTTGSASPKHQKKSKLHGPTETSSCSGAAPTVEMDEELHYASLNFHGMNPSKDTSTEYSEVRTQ
Experiment: cell-based or functional assay

Row | Binder | IC50, cytotoxic activity against the HL-60 cells
8 | Antibody-drug conjugate (8) (antibody, V domains shown, drug-linker 6-maleimidohexanoyl-GGFG-NH-(CH2)3-C(=O)-exatecan (compound of Process 3 of Example 2) on cysteines of the reduced hinge disulfide bonds; average 3.4 per antibody molecule; positions not given) VH: EVQLVQSGAEVKKPGSSVKVSCKASGYTITDSNIHWVRQAPGQSLEWIGYIYPYNGGTDYNQKFKNRATLTVDNPTNTAYMELSSLRSEDTAFYYCVNGNPWLAYWGQGTLVTVSS VL: DIQLTQSPSTLSASVGDRVTITCRASQSLDNYGIRFLTWFQQKPGKAPKLLMYAASNQGSGVPSRFSGSGSGTEFTLTISSLQPDDFATYYCQQTKEVPWSFGQGTKVEVKR | < 100 pM
